Consider 1 substance from patent US20230330253A1.

The assay has as its target human claudin 18.2 (CLDN18.2) (human). As to the kind of experiment: cell-based or functional assay.

As to IgG (Control) (antibody), the Fluorescence, pHAb internalization on MKN45-CLDN18.2 cells, 20 nM antibody, normalized by DAR came out at 854 and the Fluorescence, pHAb internalization on MKN45-CLDN18.2 cells, 100 nM antibody, normalized by DAR came to 2700.
